Data set [1] concerns the target FLT3-transfected 3T3 cells (murine FLT3 extracellular portion/human Fms chimera and/or full-length human FLT3; not told apart). In words: cell-based or functional assay.
The test system of data set [2] is Flt3-expressing 3T3 cells. In words: Flt3 3T3 assay during purification of Pv-FRIL. The conditions noted are these: by itself at <1 ng/mL. It is filed as cell-based. The procedure:
To create factor-dependence for receptor-transfected 3T3 cells, growth conditions were compromised to permit only ligands to rescue cells from death. To do this, 3T3 cell lines were assayed in 96 well plates (Becton Dickinson Labware, Lincoln Park, N.J.) containing 3,000 cells in 100 μL of serum-free medium consisting of 10% AIMV (Life Technologies) and 90% DMEM. In each experiment, samples were serially diluted two-fold across rows starting at a 1:10 dilution. Viable cells were quantitated after 3-5 days by XTT (2,3-bis[Methoxy-4-nitro-5sulfophenyl]-2H-tetrazolium-5 carboxanilide inner salt) (Sigma, St. Louis, Mo.) (Roehm et al., supra). Relative activity (units/ml) and specific activity (units/mg) are defined as the reciprocal dilution at which half-maximal stimulation of cells was detected.
Each batch of PHA-LCM was generated in serum-free medium with cells from individual normal donors. To start purification, the PHA-LCM with Flt3 3T3 activity was pooled in 30 liter lots with approximately 10^7 Flt3 3T3 units. Twenty-five liters of PHA-LCM was diafiltered into 50 mM Tris-HCl, pH 7.6, 50 mM NaCl and then concentrated to 2-2.5 liters by tangential flow ultrafiltration on a 10 kDa molecular weight cutoff membrane (Pellicon, Millipore, Bedford, Mass.). A Blue-sepharose FF (Pharmacia Biotech) column (10 cm×15 cm) was equilibrated with 50 mM Tris-HCl, pH 7.4,50 mM NaCl. […]

The conditions of data set [3]: in vivo; cited from earlier work.
The subject of data set [4] is human cord blood progenitors. In words: cord blood mononuclear cell liquid culture followed by methylcellulose colony assay. The conditions noted are these: for Blast colonies / Erythroid colonies / Mix colonies / Myeloid colonies: 40 ng/ml, ± SD of triplicate. It counts as cell-based. The procedure: To do this, umbilical cord blood from healthy donors was collected in 100 units/ml of heparin. Cord blood mononuclear cells (CB mnc) were isolated within 4 hours of collection by separation using the density separation medium sold under the trademark of FICOLL-PAQUE® (Pharmacia Biotech, Piscataway, N.J.) following manufacturer's instruction and washed in X-VIVO 10 medium (BioWhittaker, Walkersville, Md.). CB mnc were then cultured in six well tissue culture plates (Corning Inc., Corning, N.Y.) at a concentration of 200,000 cells/mL in a volume of 4 mL of X-VIVO 10 (i.e., 800,000 cells total per well). Dl-FRIL and/or recombinant E. coli Flt3-L (recFL; BioSource International, Camarillo, Calif.) were added at a concentration of 40 ng/ml at the outset (with no addition as a control). Cultures were incubated in humidified chambers without medium changes for up to 29 days.
After incubation, the cultured CB mnc cells were harvested by washing in X-VIVO 10 (i.e., harvested cells were pelleted and resuspended in X-VIVO 10) to remove the Dl-FRIL and/or recFL, and then determining viable cell number by trypan blue (Sigma) exclusion.
The progenitor capacity of the blast-like colonies was examined further for cells initially cultured for 3 weeks in either Dl-FRIL, recFL, no addition, or Dl-FRIL+recFL, and then without these regulators for an additional 6 weeks in a methylcellulose colony assay. […] Viable cells were harvested from the cells initially cultured in Dl-FRIL alone and replated in an colony assay (in methylcellulose colony assay medium) for an additional 4 weeks.

The subject of data set [5] is CB CD34+ cells. In words: cell cycle analysis of CD34+ cells (propidium iodide). The conditions noted are these: CD34+ cells cultured 3 days; mean ± SE.
Method: Cells were analyzed for their DNA content by staining with propidium iodide (Sigma). The cells were cultured in ex vivo cultures as described, for 3, 6, 10, and 13 days as indicated. At each time point, the cells were collected, resuspended to a final concentration of 0.1-1×10^6 cells/mL, and incubated with 0.1% Triton X 100 (Sigma) for 20 minutes on ice. 50 mg/mL propidium iodide (PI) were added before analysis. Flow cytometeric analyses were performed using FACSort (Becton Dickinson, San Jose, Calif.).
The cell cycle status of CB CD34^+ cells was analyzed in 5 indepenent experiments with cells cultured for 3-13 days with either Dl-FRIL or a cytokine combination (SCF, Flt3-L, G-CSF, IL-3, IL-6) (Bhatia et al., J. Exp. Med. 186:619-624, 1997; Conneally et al., Proc. Natl. Acad. Sci. USA 94:9836-9841, 1997).
In data set [6] the test system is CB CD34+ progenitor cells. In words: ex vivo culture of CB CD34+ cells: total cell numbers and CFU assay. It counts as cell-based, human.
Method: Human umbilical cord blood (CB) samples were obtained from full term deliveries. The blood samples were diluted 1:1 in phosphate-buffered-saline (PBS) without Mg^+2/Ca^+2, supplemented with 10% fetal bovine serum (FBS). Low density mononuclear cells were collected after standard separation on Ficoll-Paque (Pharmacia Biotech, Uppsala, Sweden), and washed in RPMI with 10% FBS. Some samples were frozen in 10% DMSO, while the others were used fresh. Enrichment of CD34^+ cells was performed with mini MACS separation kit (Miltenyi Biotec, Bergisch Gladbach, Germany) according to the manufacturer's instructions. The purity of the enriched CD34^+ cells was 60-80% using one column. […]
Ex vivo Cultures Human CD34^+ enriched cells were cultured in 24 well plates (2-4×10^5 cells in 0.5 mL), containing RPMI supplemented with 10% FBS+1% BSA. […] After 3, 6, 10 and 13 days, the cells were collected, counted, analyzed by FACS, seeded in to semisolid cultures and transplanted into NOD-SCID mice.
Semisolid cultures were performed in order to detect the levels of human progenitors in ex vivo cultures, and in the marrow of transplanted mice. […] The cultures were incubated at 37° C. in a humidified atmosphere containing 5% CO2 and scored 14 days later with an inverted microscope for myeloid, erythroid, and mixed colonies by morphologic criteria. […]
Data set [7] deals with FLT3 receptor. It is filed as cell-based. The conditions noted are these: murine chimeric or full length human receptor.
From the text: A specific and quantitative biological assay using NIH 3T3 fibroblasts transfected either with a chimeric receptor having the extracellular portion of the murine FLT3 receptor combined with the intracellular portion of the human Fms receptor (Dosil et al., Mol. Cell. Biol. 13(10):6572-6585 1993) or with the full length human receptor (Small et al., Proc. Natl. Acad. Sci. USA 91:459-463, 1994) can be used to evaluate lectin biological activity during purification. Serial two-fold dilutions of lectin samples across rows of a 96 well plate allowed for greater than a thousand-fold range to access FLT3 3T3 biological activity.
Specifically, 3T3 cells cultured in tissue culture plates (Becton Dickinson Labware, Lincoln Park, N.J.) were removed from the plates by washing cells twice in Hank's buffered saline solution (HBSS; Gibco Laboratories, Grand Island, N.Y.). […] Proliferation and cell survival was quantitated by addition of XTT (2, 3-bis[Methoxy-4-nitro-5sulfophenyl]-2H-tetrazolium-5 carboxanilide inner salt) (Diagnostic Chemicals Ltd, Charlottetown, Prince Edward Island, Canada), which is a tetraformazan salt cleaved by actively respiring cells (Roehm et al., J. Immunol. Methods 142: 257-265, 1991). […] One unit of biological activity was defined as the reciprocal dilution at which half-maximal stimulation of cells is detected.

Consider “Pv-FRIL (native, from Phaseolus vulgaris red kidney bean extract / purified from PHA-LCM)”, for which, in data set [1], the Specific Activity (u/mg) in the Flt3 3T3 assay, Superdex 75 step came out at 244000 units/mg.

B1: recombinant hIL1-α: exogenous recombinant human interleukin 1-α (protein, UniProt P01583 113-271, looked up)
Interleukin-1 alpha: SAPFSFLSNVKYNFMRIIKYEFILNDALNQSIIRANDQYLTAAALHNLDEAVKFDMGAYKSSKDDAKITVILRISKTQLYVTAQDEDQPVLLKEMPEIPKTITGSETNLLFFWETHGTKNYFTSVAHPNLFIATKQDYWVCLAGGPPSITDFQILENQA
On to B1, for which the “stimulatory activity on Flt3 3T3 cells” value in data set [2] is reported as “no stimulatory activity”.

B2: peanut agglutinin (PNA): dietary lectin from raw peanuts (protein, UniProt P02872 24-273, looked up)
Galactose-binding lectin: AETVSFNFNSFSEGNPAINFQGDVTVLSNGNIQLTNLNKVNSVGRVLYAMPVRIWSSATGNVASFLTSFSFEMKDIKDYDPADGIIFFIAPEDTQIPAGSIGGGTLGVSDTKGAGHFVGVEFDTYSNSEYNDPPTDHVGIDVNSVDSVKTVPWNSVSGAVVKVTVIYDSSTKTLSVAVTNDNGDITTIAQVVDLKAKLPERVKFGFSASGSLGGRQIHLIRSWSFTSTLITTTRRSIDNNEKKIMNMASA
Consider B2, for which, in data set [3], the “level in the blood” value was 1000 to 5000 ng/mL.

B3: recFL: recombinant E. coli Flt3-L (FLT3 ligand) (protein, UniProt P49771 27-235, looked up)
Fms-related tyrosine kinase 3 …: TQDCSFQHSPISSDFAVKIRELSDYLLQDYPVTVASNLQDEELCGGLWRLVLAQRWMERLKTVAGSKMQGLLERVNTEIHFVTKCAFQPPPSCLRFVQTNISRLLQETSEQLVALKPWITRQNFSRCLELQCQPDSSTLPPPWSPRPLEATAPTAPQPPLLLLLLLPVGLLLLAAAWCLHWQRTRRRTPRPGEQVPPVPSPQDLLLVEH
For B3, the “colonies after 21 days culture and 6 weeks methylcellulose colony assay” value in data set [4] was “No colonies were detected”. Also, the “fewer mature colonies than with FRIL or FRIL plus recFL” value in data set [4] (cells cultured 15 days) stood at 24 fold. In data set [4] (day 15 of culture), the Blast colonies worked out at 0, the Erythroid colonies is reported as 0, the Mix colonies is on record as 0 and the Myeloid colonies stood at 40 ± 69. Further, in data set [4] (day 21 of culture), the Blast colonies was 0, the Erythroid colonies turned out to be 0, the Mix colonies stood at 0 and the Myeloid colonies worked out at 0. In data set [4] (day 29 of culture), the Blast colonies is on record as 0, the Erythroid colonies was found to be 0, the Mix colonies turned out to be 0 and the Myeloid colonies came to 0. In data set [5], the G0/G1 was 68.4 ± 2.1 percentage, the SG2M is recorded as 22.2 ± 5.4 percentage and the “Sub G0/G1” value came out at 9.4 ± 3.3 percentage. Also, the “increase in number of total cells” value in data set [6] (10 days of suspension culture, FIG. 34A) was 4.5 fold. In data set [6] (first factor 6 days, then cytokines), the “percentage of CFU-GEMM” value is 18.2%. The “rescue of FLT3-transfected 3T3 cells from death” value in data set [7] was “rescue FLT3-transfected cells from death”.
